US20200317768A1 (published 2020)
Changes are numbered by the printed parent chain. Names and notes keep the numbering of the source.

T1: cynomolgus monkey FcγRIIa1 extracellular domain, C-terminal His-tag (cynomolgus monkey)
T1 construct: also called cyno FcγRIIa1; cynoFcgRIIa1; not shown: His-tag added to C-terminus
T1 chain: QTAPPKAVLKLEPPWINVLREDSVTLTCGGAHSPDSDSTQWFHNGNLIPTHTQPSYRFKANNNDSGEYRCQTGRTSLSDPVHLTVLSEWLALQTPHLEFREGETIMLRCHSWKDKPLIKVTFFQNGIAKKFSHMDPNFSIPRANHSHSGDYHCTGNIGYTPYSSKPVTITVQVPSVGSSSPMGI

T2: cynomolgus monkey FcγRIIa2 extracellular domain, C-terminal His-tag (cynomolgus monkey)
T2 construct: also called cyno FcγRIIa2; cynoFcgRIIa2; not shown: His-tag added to C-terminus
T2 chain: T1 chain with P95T, T121A, I127K, A128S, K130N, D135N, R142Q

T3: cynomolgus monkey FcγRIIa3 extracellular domain, C-terminal His-tag (cynomolgus monkey)
T3 construct: also called cyno FcγRIIa3; cynoFcgRIIa3; not shown: His-tag added to C-terminus
T3 chain: T1 chain with P95T, T121A, A128S, H133P, D135N

T4: cynomolgus monkey FcγRIIb extracellular domain, C-terminal His-tag (cynomolgus monkey)
T4 construct: also called cyno FcγRIIb; cynoFcγRIIb; not shown: His-tag added to C-terminus
T4 chain: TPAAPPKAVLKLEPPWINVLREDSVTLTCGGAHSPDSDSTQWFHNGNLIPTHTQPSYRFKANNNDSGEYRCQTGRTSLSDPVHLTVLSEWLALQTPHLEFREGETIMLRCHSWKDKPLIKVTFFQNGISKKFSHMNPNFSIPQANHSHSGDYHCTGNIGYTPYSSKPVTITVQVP

T5: human FcγRIIaH extracellular domain, C-terminal His-tag (human, UniProt P12318 34-217)
T5 construct: also called human FcγRIIa (type H); FcgRIIaH; not shown: His-tag added to C-terminus
T5 sequence: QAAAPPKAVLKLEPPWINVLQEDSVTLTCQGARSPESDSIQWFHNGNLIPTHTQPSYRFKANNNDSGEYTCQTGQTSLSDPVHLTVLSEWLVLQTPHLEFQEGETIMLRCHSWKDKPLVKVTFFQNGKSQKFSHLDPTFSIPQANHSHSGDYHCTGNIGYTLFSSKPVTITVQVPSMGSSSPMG

T6: human FcγRIIaR extracellular domain, C-terminal His-tag (human, UniProt P12318 34-217)
T6 construct: also called human FcγRIIa (type R); FcgRIIaR; not shown: His-tag added to C-terminus
T6 chain: T5 sequence with H134R

T7: human FcγRIIb extracellular domain, C-terminal His-tag (human, UniProt P31994 43-217)
T7 construct: also called humanFcgRIIb; not shown: His-tag added to C-terminus
T7 sequence: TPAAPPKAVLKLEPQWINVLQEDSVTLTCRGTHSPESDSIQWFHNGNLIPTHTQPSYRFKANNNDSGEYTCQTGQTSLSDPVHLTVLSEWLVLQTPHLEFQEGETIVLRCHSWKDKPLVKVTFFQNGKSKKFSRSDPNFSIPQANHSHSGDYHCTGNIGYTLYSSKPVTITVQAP

B1: M103205H795-MY536 / M103202L889-SK1 (antibody, human IgG1, kappa)
heavy: QVTLKESGPVLVKPTETLTLTCTVSGIDLSHDDISWVRQAPGKGLEWVGIISYAGSTYYASWAKGRLTISKDTSKNQVVLTMTNMDPVDTATYYCARGVPAYSHGGDLWGQGTLVTVSSASTKGPSVFPLAPSSKSTSGGTAALGCLVKDYFPEPVTVSWNSGALTSGVHTFPAVLQSSGLYSLSSVVTVPSSSLGTQTYICNVNHKPSNTKVDKKVEPKSCDKTHTCPPCPGPEWLTGPVVFLFPPKPKDTLMISRTPEVTCVVVDVSDEDPEVKFNWYVDGVEVHNAKTKPREEQYNSTYRVVSVLTVLHQDWLNGKEYKCKVSNKALPKPIEKTISKAKGQPREPQVYTLPPSREEMTKNQVSLTCLVKGFYPSDIAVEWESNGQPENNYKTTPPVLDSDGSFFLYSKLTVDKSRWQQGNVFSCSVMHEALHNHYTQKSLSLSP
light: DIVMTQSPATLSLSPGERATLSCTSSQSVYHANWLSWFQQKPGQPPKLLIYWASTLAYGVPSRFSGSGSGTDFTLTISSLQPEDAATYYCAGGYGGGRYAFGQGTKVEIKRTVAAPSVFIFPPSDEQLKSGTASVVCLLNNFYPREAKVQWKVDNALQSGNSQESVTEQDSKDSTYSLSSTLTLSKADYEKHKVYACEVTHQGLSSPVTKSFNRGEC
B2: M103205H795-MY537 / M103202L889-SK1 (antibody, human IgG1, kappa)
heavy: B1 heavy with Q297L
light: B1 light
B3: M103205H795-MY538 / M103202L889-SK1 (A231G/L234W/G236T/H268D/Q295L/A330K, as in Table 23B) (antibody, human IgG1, kappa)
heavy: B1 heavy with V241S, Q297L
light: B1 light

Experiments:
Assay in all cases: SPR (BIACORE); KD of SG1 / KD of variant;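 further: relative to parent M103205H795-SG1 carrying the SG1 human heavy chain constant region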
[1] = molecular target: T1, cynomolgus monkey FcγRIIa1 …
Protocol: (§1) The kinetic analysis of interactions between these antibodies and FcγR was carried out using BIACORE® T200 or BIACORE® 4000 (GE Healthcare). HBS-EP+ (GE Healthcare) was used as the running buffer, and the measurement temperature was set to 25° C. A chip produced by immobilizing Protein A. Protein A/G or mouse anti-human IgG kappa light chain (BD Biosciences) onto a Series S Sensor Chip CM4 or CM5 (GE Healthcare) by the amine-coupling method was used. […] After the measurement, the antibody captured on the chip was washed off by allowing reaction with 10 mM glycine-HCl, pH1.5 and 25 mM NaOH so that the chip was regenerated and used repeatedly. The sensorgrams obtained as measurement results were analyzed by the 1:1 Langmuir binding model using the BIACORE® Evaluation Software to calculate the binding rate constant ka (L/mol/s) and dissociation rate constant kd (l/s), and the dissociation constant KD (mol/L) was calculated from these values. […] Regarding such interactions, KD values were calculated using the following 1:1 binding model described in BIACORE® T100 Software Handbook BR1006-48 Edition AE.
(§2) The behavior of interacting molecules according to the 1:1 binding model on BIACORE® can be described by Equation 1: Req=C·R max/(KD+C)+RI, wherein, Req is a plot of steady-state binding levels to analyte concentration. C is concentration, RI is bulk refractive index contribution in the sample, and Rmax is analyte binding capacity of the surface. When this equation is rearranged, KD can be expressed as Equation 2: KD=C·Rmax/(Req−RI)−C. KD can be calculated by substituting the values of Rmax, RI, and C into Equation 1 or Equation 2. From the current measurement conditions, RI=0, C=2 μmol/L can be used.

[2] = molecular target: T2, cynomolgus monkey FcγRIIa2 …
Protocol: as §1, §2

[3] = molecular target: T3, cynomolgus monkey FcγRIIa3 …
Protocol: as §1, §2

[4] = molecular target: T4, cynomolgus monkey FcγRIIb extracellular …
Protocol: as §1, §2

[5] = molecular target: T8, cynomolgus monkey FcγRIIIaS extracellular domain, C-terminal His-tag (cynomolgus monkey, UniProt A3RFZ7 21-206 (rhesus entry))
T8 construct: also called cyno FcγRIIIaS; cynoFcγRIIIaS; not shown: His-tag added to C-terminus
Protocol: as §1, §2

[6] = molecular target: T5, human FcγRIIaH extracellular domain, …
Protocol: as §1, §2

[7] = molecular target: T6, human FcγRIIaR extracellular domain, …
Protocol: as §1, §2

[8] = molecular target: T7, human FcγRIIb extracellular domain, …
Protocol: as §1, §2

[9] = molecular target: T9, human FcγRIIIaV extracellular domain, C-terminal His-tag (human, UniProt P08637 17-208)
T9 construct: also called FcgRIIIaV; not shown: His-tag added to C-terminus
Protocol: as §1, §2

T9 sequence (P08637 17-208 F176V): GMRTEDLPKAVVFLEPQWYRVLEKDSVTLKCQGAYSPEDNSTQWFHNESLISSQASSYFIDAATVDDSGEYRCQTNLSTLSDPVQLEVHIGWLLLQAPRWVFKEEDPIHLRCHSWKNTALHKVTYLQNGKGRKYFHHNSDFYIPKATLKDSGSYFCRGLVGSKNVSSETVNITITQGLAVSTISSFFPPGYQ
T8 sequence (A3RFZ7 21-206): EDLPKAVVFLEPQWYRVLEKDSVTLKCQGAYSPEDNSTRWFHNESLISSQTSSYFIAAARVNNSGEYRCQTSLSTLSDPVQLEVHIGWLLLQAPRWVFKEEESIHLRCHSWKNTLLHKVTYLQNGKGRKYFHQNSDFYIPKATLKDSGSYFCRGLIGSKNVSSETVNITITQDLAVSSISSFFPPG

Row | Binder | KD fold (SG1 = 1) [1] | KD fold (SG1 = 1) [2] | KD fold (SG1 = 1) [3] | KD fold (SG1 = 1) [4] | KD fold (SG1 = 1) [5] | KD fold (SG1 = 1) [6] | KD fold (SG1 = 1) [7] | KD fold (SG1 = 1) [8] | KD fold (SG1 = 1) [9]
1 | B1 | 2.7 fold | 4.6 fold | 17.3 fold | 4.5 fold | 0.23 fold | 2.4 fold | 5 fold | 4.6 fold | 0.3 fold
2 | B2 | 2.7 fold | 4.6 fold | 12.1 fold | 3.6 fold | 0.24 fold | 2.5 fold | 3 fold | 4.6 fold | 0.25 fold
3 | B3 | 3.3 fold | 4.6 fold | 5.7 fold | 6.4 fold | 0.15 fold | 2.8 fold | 1.8 fold | 3.5 fold | 0.14 fold
